Data taken from publication PMC3561948.
“And” between values parts separate entries of the source, which are not always exact repeats. Equal entries are not always repeated.

Legend:
[1] = target: N130 Mos1 (the N-terminal 130 amino acids of Mos1 transposase, DNA-binding domain) (Drosophila mauritiana); test: SEC-MALS
[2] = target: Mos1 transposase (containing the solubilizing mutation T216A), hydrogenated (Drosophila mauritiana); test: SEC-MALS
[3] = target: Mos1 transposase (containing the solubilizing mutation T216A), hydrogenated (Drosophila mauritiana); test: SAXS + SANS
[4] = target: Mos1 transposase (containing the solubilizing mutation T216A), hydrogenated (Drosophila mauritiana); test: […], room temperature, 20 mM Tris pH 7.5, 0.3 M KCl, 1 mM DTT
[5] = target: Mos1 transposase (containing the solubilizing mutation T216A), hydrogenated (Drosophila mauritiana); test: SAXS + SANS; remark: listed apart in the source
[6] = target: T1, D-Mos1 transposase (UniProt Q7JQ07 1-345, T216A); test: SANS contrast variation
T1 sequence: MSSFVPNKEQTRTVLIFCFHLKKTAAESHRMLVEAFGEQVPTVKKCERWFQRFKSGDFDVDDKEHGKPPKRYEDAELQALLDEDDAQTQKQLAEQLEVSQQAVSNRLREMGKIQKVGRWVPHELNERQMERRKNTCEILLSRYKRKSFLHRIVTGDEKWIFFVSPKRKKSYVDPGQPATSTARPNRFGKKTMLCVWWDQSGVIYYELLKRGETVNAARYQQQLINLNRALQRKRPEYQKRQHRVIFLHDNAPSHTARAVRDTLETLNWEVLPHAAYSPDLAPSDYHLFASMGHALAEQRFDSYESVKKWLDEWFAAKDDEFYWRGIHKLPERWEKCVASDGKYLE

[7] = target: T2, H-Mos1 transposase (UniProt Q7JQ07 1-345, T216A)
T2 sequence: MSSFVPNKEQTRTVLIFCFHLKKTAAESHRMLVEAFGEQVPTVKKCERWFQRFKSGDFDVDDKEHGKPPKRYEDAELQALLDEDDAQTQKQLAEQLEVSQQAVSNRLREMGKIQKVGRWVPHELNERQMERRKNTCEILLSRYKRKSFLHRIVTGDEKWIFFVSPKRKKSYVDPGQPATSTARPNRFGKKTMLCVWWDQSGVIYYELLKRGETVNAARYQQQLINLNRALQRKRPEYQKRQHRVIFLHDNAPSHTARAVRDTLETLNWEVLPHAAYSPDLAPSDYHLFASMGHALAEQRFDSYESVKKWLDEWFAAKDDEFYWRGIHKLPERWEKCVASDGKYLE

Molecule: N130 Mos1 (the N-terminal 130 amino acids of Mos1 transposase, DNA-binding domain) (domain or fragment)
- stoichiometry N [1]: 2 and 4

Molecule: Mos1 transposase (containing the solubilizing mutation T216A), hydrogenated (enzyme)
- stoichiometry N [2]: 2
- stoichiometry N [3]: 2
- stoichiometry N [4]: 2
- stoichiometry N [5]: 2

B1: 50-mer IR DNA (SEC2 duplex) (dsDNA)
DNA 1: TTTAAAAAAAACGACATTTCATACTTGTACACCTGATAGTTTCTATATTC
DNA 2: GAATATAGAAACTATCAGGTGTACAAGTATGAAATGTCGTTTTTTTTAAA
- binding result [6]: binds
- binding result [7]: binds
